From patent US20240270857A1 (CHIA TAI TIANQING PHARMACEUTICAL GROUP, published 2024)
One block for each binder: values may come before it.

Assays:
[1] = molecular target: T1, CynoIL36R-ECD mFc recombinant protein (cynomolgus monkey); assay: ELISA, plate coated with CynoIL36R-ECD mFc, HRP-protein A/G, OD450
T1 construct: Made in ExpiCHO, purified on Protein A; also called cynomolgus IL-36R extracellular region with mouse antibody heavy chain Fc
T1 chain: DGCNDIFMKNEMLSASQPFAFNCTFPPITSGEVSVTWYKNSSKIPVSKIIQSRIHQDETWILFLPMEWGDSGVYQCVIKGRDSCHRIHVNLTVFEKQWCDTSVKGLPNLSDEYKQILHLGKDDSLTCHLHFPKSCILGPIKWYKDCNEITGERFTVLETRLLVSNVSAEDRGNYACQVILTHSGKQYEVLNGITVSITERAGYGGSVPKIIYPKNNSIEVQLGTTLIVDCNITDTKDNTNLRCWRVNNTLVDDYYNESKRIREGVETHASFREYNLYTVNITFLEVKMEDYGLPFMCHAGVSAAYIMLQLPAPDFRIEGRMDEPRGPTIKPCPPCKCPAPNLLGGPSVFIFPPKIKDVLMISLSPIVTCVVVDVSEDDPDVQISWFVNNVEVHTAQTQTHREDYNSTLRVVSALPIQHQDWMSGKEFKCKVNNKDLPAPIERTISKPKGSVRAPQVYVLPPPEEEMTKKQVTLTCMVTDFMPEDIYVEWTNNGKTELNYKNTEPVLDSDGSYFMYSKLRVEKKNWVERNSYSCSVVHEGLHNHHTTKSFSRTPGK
Experimental: (§1) The binding activity of anti-IL-36R antibodies to IL-36R was analyzed by ELISA using human IL-1Rrp2/IL-1R6 protein, His Tag (ACROBiosystems, IL2-H52H6) and CynoIL36R-ECD mFc (for detection of chimeric and humanized antibodies), and hIL36R-ECD hFc and CynoIL36R-ECD hFc protein (for detection of hybridoma antibodies) as antigens. A 96-well plate (Costar, 9018) was coated with 2 μg/mL antigen at 100 μL/well and incubated overnight at 4° C. After the 96-well plate was washed with a washing buffer (PBS containing 0.05% v/v Tween 20), a blocking buffer (PBS containing 2% bovine serum albumin) was added for blocking at 37° C. for 2 h. After the 96-well plate was washed with the washing buffer, 100 μL of the gradient diluted anti-IL-36R antibody of the present disclosure or the reference antibody BI655130 (the initial concentration of the antibody was 66 nM, 4-fold gradient dilution) was added to each well, and the plate was incubated at room temperature for 1 h. After the 96-well plate was washed with the washing buffer, 100 μL of horseradish peroxidase-conjugated recombinant protein A/G (TheroScientific, 32490) was added to each well, and the plate was incubated at room temperature for 1 h. After the 96-well plate was washed with the washing buffer, 100 μL of a TMB solution (Thermo, 00-4201-56) was added to each well, and the plate was incubated at room temperature for 2 min. Finally, 100 μL of a stop solution (2 N H₂SO₄) was added to each well to stop the reaction. Absorbance was read at 450 nm using a microplate reader (PE, Envision), the resulting data was analyzed using GraphPad Prism, and EC₅₀ was calculated. Binding EC₅₀ of the chimeric anti-IL-36R antibodies to hIL-36R in an ELISA assay is shown in FIG. 1. and binding EC₅₀ of the chimeric anti-IL-36R antibodies to CynoIL-36R in an ELISA assay is shown in FIG. 2. The binding of BI655130 is shown as a control, and the binding of IgG4 is shown as a negative control.

[2] = molecular target: T2, IL-36R naturally expressed on OVCAR8 cells and on normal human epidermal keratinocytes (NHK cells) (human, UniProt Q9HB29 20-575); assay: cell-based or functional assay
T2 sequence (looked up): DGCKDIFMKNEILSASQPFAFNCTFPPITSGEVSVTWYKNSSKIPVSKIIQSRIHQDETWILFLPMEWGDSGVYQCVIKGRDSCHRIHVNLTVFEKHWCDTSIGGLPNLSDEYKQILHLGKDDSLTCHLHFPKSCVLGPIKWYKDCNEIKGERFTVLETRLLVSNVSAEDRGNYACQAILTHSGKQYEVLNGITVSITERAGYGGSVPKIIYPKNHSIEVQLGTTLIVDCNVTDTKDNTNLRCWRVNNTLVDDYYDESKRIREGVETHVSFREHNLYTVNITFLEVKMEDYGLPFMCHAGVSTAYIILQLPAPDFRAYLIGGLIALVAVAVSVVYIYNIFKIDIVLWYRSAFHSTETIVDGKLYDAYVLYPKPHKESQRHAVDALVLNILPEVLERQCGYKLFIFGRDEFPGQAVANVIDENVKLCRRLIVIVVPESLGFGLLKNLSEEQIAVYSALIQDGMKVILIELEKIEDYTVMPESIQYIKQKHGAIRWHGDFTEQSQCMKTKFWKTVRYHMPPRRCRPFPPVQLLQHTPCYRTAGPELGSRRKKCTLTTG

[3] = molecular target: T2, IL-36R naturally expressed on OVCAR8 …; assay: cell-based or functional assay; remark: listed apart in the source
[4] = molecular target: T3, Human IL-1Rrp2/IL-1R6 protein, His Tag (ACROBiosystems, IL2-H52H6) (human, UniProt Q9HB29 20-335); assay: ELISA, plate coated with human IL-1Rrp2/IL-1R6 His Tag, HRP-protein A/G, OD450
T3 construct: Bought protein; the soluble protein is likely only the extracellular part; also called hIL-36R; human IL36R antigen; not shown: His tag
T3 sequence: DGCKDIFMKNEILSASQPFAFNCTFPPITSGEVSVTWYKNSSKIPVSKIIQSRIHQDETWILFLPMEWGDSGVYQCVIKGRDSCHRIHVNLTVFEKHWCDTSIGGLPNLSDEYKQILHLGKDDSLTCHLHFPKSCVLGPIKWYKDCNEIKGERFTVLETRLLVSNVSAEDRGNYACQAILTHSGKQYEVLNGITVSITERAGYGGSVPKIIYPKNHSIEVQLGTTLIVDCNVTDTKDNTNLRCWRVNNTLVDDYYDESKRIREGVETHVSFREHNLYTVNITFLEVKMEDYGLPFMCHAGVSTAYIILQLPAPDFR
Experimental: as §1

[5] = molecular target: T4, human IL-36R overexpressed on 293T-hIL36R-NFκB cells (human, UniProt Q9HB29 20-575); assay: cell-based or functional assay
T4 sequence: T2 sequence (looked up)

EC50 [1]: 21.9 nM
IC50; IL-8 production of NHK cells stimulated with hIL36β, inhibition rate % [2]: 0.848 nM
B1: chimeric 84C4 antibody (antibody, human IgG4 S228P, kappa)
heavy: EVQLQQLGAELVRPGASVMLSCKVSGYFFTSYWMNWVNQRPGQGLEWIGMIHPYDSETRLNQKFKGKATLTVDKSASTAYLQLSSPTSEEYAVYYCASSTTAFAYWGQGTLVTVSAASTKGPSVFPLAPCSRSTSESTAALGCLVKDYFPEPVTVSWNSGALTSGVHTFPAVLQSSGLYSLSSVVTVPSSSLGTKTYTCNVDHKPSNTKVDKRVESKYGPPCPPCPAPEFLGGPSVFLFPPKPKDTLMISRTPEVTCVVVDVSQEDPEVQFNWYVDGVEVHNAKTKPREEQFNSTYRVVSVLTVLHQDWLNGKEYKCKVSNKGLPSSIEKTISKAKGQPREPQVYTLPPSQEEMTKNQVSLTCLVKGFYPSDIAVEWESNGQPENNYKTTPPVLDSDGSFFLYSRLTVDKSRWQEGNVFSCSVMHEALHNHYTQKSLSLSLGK
light: DILMTQSPSSLSASLGERVSLTCRASQDIGNALNWLQQAPDGTIKRLIYATSSLDPGVPKRFSGSRSGSDYSLTISSLASEDFVYYYCLQYASSPYTFGGGTKLEIKRTVAAPSVFIFPPSDEQLKSGTASVVCLLNNFYPREAKVQWKVDNALQSGNSQESVTEQDSKDSTYSLSSTLTLSKADYEKHKVYACEVTHQGLSSPVTKSFNRGEC
notes: Mouse variable regions on human IgG4 / kappa; also called xi84C4

EC50 [1]: 3.02 nM
IC50; IL-8 production of NHK cells stimulated with hIL36β, inhibition rate % [2]: 0.474 nM
B2: chimeric 72C1 antibody (antibody, human IgG4 S228P, kappa)
heavy: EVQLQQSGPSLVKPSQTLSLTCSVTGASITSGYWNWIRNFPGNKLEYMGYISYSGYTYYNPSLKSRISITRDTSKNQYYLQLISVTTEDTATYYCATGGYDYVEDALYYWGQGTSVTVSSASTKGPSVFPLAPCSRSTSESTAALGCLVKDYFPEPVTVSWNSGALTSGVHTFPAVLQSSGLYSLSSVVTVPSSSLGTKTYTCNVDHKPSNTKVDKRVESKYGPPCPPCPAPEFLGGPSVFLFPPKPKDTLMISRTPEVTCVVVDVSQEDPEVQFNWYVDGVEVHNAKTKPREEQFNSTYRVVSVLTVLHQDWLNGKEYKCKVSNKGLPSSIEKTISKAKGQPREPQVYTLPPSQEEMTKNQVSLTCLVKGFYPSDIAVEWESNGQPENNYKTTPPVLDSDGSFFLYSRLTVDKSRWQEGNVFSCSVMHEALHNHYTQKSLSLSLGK
light: EILLTQSPAIMSATLGEKVTMSCRASSNVRYMYWYQLKSGASPKLWIYLTSNLASGVPARFSGSGSGTSYSLTISSVEAEDAATYFCQQFTTSPYTFGGGTKLEIKRTVAAPSVFIFPPSDEQLKSGTASVVCLLNNFYPREAKVQWKVDNALQSGNSQESVTEQDSKDSTYSLSSTLTLSKADYEKHKVYACEVTHQGLSSPVTKSFNRGEC
notes: Mouse variable regions on human IgG4 / kappa; also called xi72C1

EC50 [1]: 1.89 nM
IC50 (M); hIL36α; IL-8 production [3]: 1.26e-10 M
IC50 (M); hIL36αβγ; IL-8 production [3]: 1.98e-10 M
IC50 (M); hIL36β; IL-8 production [3]: 3.03e-10 M
IC50 (M); hIL36γ; IL-8 production [3]: 4.42e-11 M
Maximum inhibition rate %; hIL36α; IL-8 production [3]: 106%
Maximum inhibition rate %; hIL36αβγ; IL-8 production [3]: 98.9%
Maximum inhibition rate %; hIL36β; IL-8 production [3]: 101%
Maximum inhibition rate %; hIL36γ; IL-8 production [3]: 105%
IC50; IL-8 production of NHK cells stimulated with hIL36β, inhibition rate % [2]: 0.248 nM
EC50 [4]: 0.348 nM
IC50 (M); hIL36α; NFκB-luciferase [5]: 1.75e-09 M
IC50 (M); hIL36αβγ; NFκB-luciferase [5]: 3.27e-09 M
IC50 (M); hIL36β; NFκB-luciferase [5]: 2.21e-09 M
IC50 (M); hIL36γ; NFκB-luciferase [5]: 1.1e-09 M
Maximum inhibition rate %; hIL36α; NFκB-luciferase [5]: 83.6%
Maximum inhibition rate %; hIL36αβγ; NFκB-luciferase [5]: 63.3%
Maximum inhibition rate %; hIL36β; NFκB-luciferase [5]: 85.2%
Maximum inhibition rate %; hIL36γ; NFκB-luciferase [5]: 81%
B3: BI655130 (antibody, human IgG1, kappa, L234A L235A)
heavy: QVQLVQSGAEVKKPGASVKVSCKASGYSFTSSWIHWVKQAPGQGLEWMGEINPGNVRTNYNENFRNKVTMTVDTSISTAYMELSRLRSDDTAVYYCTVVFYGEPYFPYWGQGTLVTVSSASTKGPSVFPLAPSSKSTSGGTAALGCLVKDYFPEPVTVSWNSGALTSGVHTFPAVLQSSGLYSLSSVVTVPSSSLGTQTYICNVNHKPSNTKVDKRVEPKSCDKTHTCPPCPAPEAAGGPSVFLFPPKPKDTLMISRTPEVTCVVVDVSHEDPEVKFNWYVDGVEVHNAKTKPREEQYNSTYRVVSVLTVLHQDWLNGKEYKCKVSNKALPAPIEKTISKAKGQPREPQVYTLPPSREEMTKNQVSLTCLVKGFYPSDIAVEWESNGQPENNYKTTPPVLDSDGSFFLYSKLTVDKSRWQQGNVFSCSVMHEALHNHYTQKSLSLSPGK
light: QIVLTQSPGTLSLSPGERATMTCTASSSVSSSYFHWYQQKPGQAPRLWIYRTSRLASGVPDRFSGSGSGTDFTLTISRLEPEDAATYYCHQFHRSPLTFGAGTKLEIKRTVAAPSVFIFPPSDEQLKSGTASVVCLLNNFYPREAKVQWKVDNALQSGNSQESVTEQDSKDSTYSLSSTLTLSKADYEKHKVYACEVTHQGLSSPVTKSFNRGEC
notes: also called Spesolimab
